The target in one test is T1, Human IL1RAPL1-Fc (human, UniProt Q9NZN1 19-357).
T1 sequence (looked up): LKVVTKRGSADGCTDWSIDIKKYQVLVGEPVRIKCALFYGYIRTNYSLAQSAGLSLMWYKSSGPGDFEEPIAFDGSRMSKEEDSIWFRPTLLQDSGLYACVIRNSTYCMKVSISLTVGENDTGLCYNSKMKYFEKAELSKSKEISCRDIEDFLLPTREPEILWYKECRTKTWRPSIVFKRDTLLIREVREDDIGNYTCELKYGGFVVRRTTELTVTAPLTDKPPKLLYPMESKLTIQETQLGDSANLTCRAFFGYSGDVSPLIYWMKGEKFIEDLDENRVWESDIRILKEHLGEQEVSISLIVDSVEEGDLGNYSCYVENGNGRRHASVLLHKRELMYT
Nature of the test: ELISA. For orientation: In an ELISA, binding on a coated surface is turned into a signal by an enzyme label.

The next test deals with T2, Human IL-36R-Fc (human, UniProt Q9HB29 20-335).
T2 sequence (looked up): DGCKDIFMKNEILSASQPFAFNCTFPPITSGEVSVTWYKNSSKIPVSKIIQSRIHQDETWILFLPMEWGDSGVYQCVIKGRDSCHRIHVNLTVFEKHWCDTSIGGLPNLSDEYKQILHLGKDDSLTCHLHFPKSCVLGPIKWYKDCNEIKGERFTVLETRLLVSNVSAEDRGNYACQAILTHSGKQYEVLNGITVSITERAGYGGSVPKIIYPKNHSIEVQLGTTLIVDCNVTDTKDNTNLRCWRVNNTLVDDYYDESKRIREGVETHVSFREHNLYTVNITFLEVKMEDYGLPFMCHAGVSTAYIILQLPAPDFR
The experiment in a line: ELISA.

B1: Recombinant full length human IL-38 (ligand, UniProt Q8WWZ1 1-152, looked up)
chain: MCSLPMARYYIIKYADQKALYTRDGQLLVGDPVADNCCAEKICILPNRGLARTKVPIFLGIQGGSRCLACVETEEGPSLQLEDVNIEELYKGGEEATRFTFFQSSSGSAFRLEAAAWPGWFLCGPAEPQQPVQLTKESEPSARTKFYFEQSW
As to B1, the binding result with Human IL1RAPL1-Fc and in the test with Human IL-36R-Fc was “binds” throughout.

The record behind these values is publication PMC10208126 (mAbs, 2023).
